B1: ch7C5嵌合抗体 (antibody, V domains shown)
VH: EVQLQQSGAELARPGASVKLSCKASGYTFTSYGISWVKQRTGQGLEWIGEIYPRSDNTYYNGKFKGKATLTADKSSSTAYMELRSLTSEDSAVFFCARRAFYYYGSNYYAMDYWGQGTSVTVSS
VL: DVLMTQTPLFLPVSLGDQASISCRSSQSIVHSNGDTYLEWYLRKPGQSPKLLIFKVSNRFSGVPDRFSGSGSGTDFTLKISRVEAEDLGVYYCFQGSHVPWTFGGGTKLEIK
B2: ch10B4嵌合抗体 (antibody, human IgG4, V domains shown)
VH: B1 VH with T28S, S31N, V37M, S55G, D56G, K74Q, F94Y, Y104F
VL: B1 VL with L3V, R43Q, F54Y, E110A
B3: ch7F10嵌合抗体 (antibody, human IgG4, V domains shown)
VH: EVKLMESGAELVKPGASVKLSCKVSGVNIKDDYMHWVKQRTEQGLEWIGRIDPEDVETKYDPKFQGKATITSDTSSNTGYLQLSSLTSEDTAVYYCARSFYSNYVNYFDQWGQGTTLTVSS
VL: DIVMTQAPKSMSMSVGERVTLSCKASENVGTYVSWFQQKPEQSPKLLIYGASNRYTGVPDRFTGSGSATDFTLTISSVQAEDLADYHCGQSYSYPYTFGGGTKLEIK
B4: ch3A10嵌合抗体 (antibody, human IgG4, V domains shown)
VH: EVQLQQSGAELVRPGASVKLSCTASGFNIKDDYMHWMKQRPEQGLEWIGWIDPENGETEYASKFQGKATITADTYSNTVYLQFSSLTSEDTGVYYCTIFDYWGQGTSLTVSS
VL: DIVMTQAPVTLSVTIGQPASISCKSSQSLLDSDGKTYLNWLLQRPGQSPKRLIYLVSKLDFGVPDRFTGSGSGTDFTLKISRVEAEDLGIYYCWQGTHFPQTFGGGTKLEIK
B5: ch7F1嵌合抗体 (antibody, human IgG4, V domains shown)
VH: EVQLVESGPGLVAPSQSLSITCTVSGFSLTDYAVSWIRQPPGKGLEWLGVVWGDGSTNYHSALISRLIITRDNSKRQVFLKLNSLQTDDTATYYCAKGGGGMDYWGQGTSVTVSS
VL: DIVLSQSPAILSASPGEKVTVTCRASSSVSYMHWFQQKPGSSPKPWIYATSNLASGVPVRFSGSGSGTSYSLTISRVEAEDAATYYCQHYNTNPPTWTFGGGSKLEIK
B6: ch4C8嵌合抗体 (antibody, human IgG4, V domains shown)
VH: EVQLVESGGGLVKIGGSLKLSCAGSGFTFSNYAMSWVRQTPEKRLEWVATITYGTTYTFYSDNVKGRFTISRDNAKNNLSLQMSHLKSEDTAMYYCTRGEYGSSFAYWGQGTLVTVSA
VL: DIVMTQSQKFMSTSVGDRVSITCKASQNVRTAVAWYQQKPGQSPKALIYLASNRHTGVPDRFTGSGSETDFTLTINNVQSEDLADYFCLQHWNYPLTFGGGTKLEIK

Residue numbers refer to the chain shown, from its start.

In the first experiment the target is T1, hLAG-3-mFc融合蛋白 (human, UniProt P18627 23-450).
T1 construct: range 1-450; no cleavage site is stated; also called hLAG-3-mFc重组蛋白; 人LAG-3-mFc重组蛋白; not shown: mouse Fc
T1 sequence (looked up): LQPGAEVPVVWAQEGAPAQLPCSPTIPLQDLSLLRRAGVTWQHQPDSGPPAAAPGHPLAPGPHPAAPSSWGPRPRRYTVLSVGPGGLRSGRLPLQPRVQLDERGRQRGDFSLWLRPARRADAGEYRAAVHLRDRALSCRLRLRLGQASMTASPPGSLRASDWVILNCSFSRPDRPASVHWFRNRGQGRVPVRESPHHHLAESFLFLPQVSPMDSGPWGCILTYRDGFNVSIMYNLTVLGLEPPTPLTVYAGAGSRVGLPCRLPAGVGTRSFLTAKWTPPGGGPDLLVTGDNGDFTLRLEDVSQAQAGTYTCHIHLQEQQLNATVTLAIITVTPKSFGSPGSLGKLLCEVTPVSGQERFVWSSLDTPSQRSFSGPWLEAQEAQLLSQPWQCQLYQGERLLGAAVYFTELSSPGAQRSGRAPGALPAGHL
The experiment in a line: FACS competition: blocking of hLAG-3-mFc (2 ug/ml) binding to HLA on 293/rhHLA cells.
Turning to B1, the IC50 was found to be 1.87 µg/mL.
The same measure, in the same setting: under B2 stands 2 µg/mL; under B3, 1.21 µg/mL.
In turn, B4 gave an IC50 of 3.33 µg/mL.
The same measure, in the same setting: under B5 stands 11.5 µg/mL; under B6, 1.28 µg/mL.

For the next experiment, the target named is T1, hLAG-3-mFc融合蛋白. In words: BLI (ForteBio Octet QKe), antibody captured on AHC probe, hLAG-3-mFc 60 nM in solution, 1:1 fit.
Turning to B1, the Kd was determined as 0.365 nM.
On the same count and under the same terms, under B2 stands 0.0884 nM; under B3, 0.117 nM; under B4, 0.128 nM.
The same measure, in the same setting: under B5 stands 5.52 nM; under B6, 0.427 nM.

One may read the IC50 as the midpoint of a concentration-inhibition curve. Read a low IC50 as inhibition by little substance. By Kd is commonly meant the free concentration of one partner at which half of the binding sites on the other are occupied at equilibrium, for simple one-to-one binding. Low values mean higher affinity, high ones lower affinity.

The values are drawn from patent publication CN114907478A (MABWELL SHANGHAI BIOSCIENCE CO LTD, dated 2022).
